From patent publication US20160187342, “DNA Aptamer Specifically Binding to EN2 (Engrailed-2) and Use Thereof” (POSTECH ACADEMY-INDUSTRY FOUNDATION, published 2016) come the findings set out here.

In data set [1] the target is T1, EN2 (Engrailed-2) (UniProt P19622 P19622:1-333).
T1 sequence: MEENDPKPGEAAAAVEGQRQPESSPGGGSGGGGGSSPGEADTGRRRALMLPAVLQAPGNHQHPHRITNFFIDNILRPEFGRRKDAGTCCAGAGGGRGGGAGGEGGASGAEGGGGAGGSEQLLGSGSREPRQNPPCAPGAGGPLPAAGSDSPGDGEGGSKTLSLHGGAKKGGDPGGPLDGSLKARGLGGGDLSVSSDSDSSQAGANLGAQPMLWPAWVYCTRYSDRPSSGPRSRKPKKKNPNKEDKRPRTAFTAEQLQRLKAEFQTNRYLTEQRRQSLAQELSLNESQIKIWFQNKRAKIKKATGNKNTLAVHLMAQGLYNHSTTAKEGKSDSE
The data set can be described thus: FAM fluorescence of protein-bound aptamer. As to conditions: tags: (His)6-tag, pET28a, E. coli BL21(DE3), hairpin. How it is done: (§1) Then, in order to compare binding strengths between the EN2 protein and each of the DNA aptamers, a dissociation constant (Kd) between the EN2 protein and each of the DNA aptamers was measured. In this case, fluorescein amidite (FAM) was attached to the DNA aptamer as a marker, and an amount of the DNA aptamer bound to the protein was measured according to a fluorescent signal of FAM.

Data set [2] concerns the target T1, EN2 (Engrailed-2). The data set can be described thus: FAM fluorescence of protein-bound aptamer; printed as hDNA5. The following applies: tags: (His)6-tag, pET28a, E. coli BL21(DE3); label: FAM; hairpin, loop 8 bases, stem 10 bp. How it is done: as §1
The target in data set [3] is TATA box binding protein (TBP) (UniProt P20226 P20226:1-339). As to the kind of experiment: impedance biosensor on gold, 10 pM protein in artificial urine. As to conditions: label: FAM (Kd assay); poly A linker to gold surface (biosensor); hairpin, loop 8 bases, stem 14 bp. How it is done:
In order to identify selective binding of the DNA aptamer, a binding specificity with respect to several protein samples was identified. Each protein was mixed in an artificial urine medium to have a concentration of 10 pM, and then it was identified whether binding to the DNA aptamer was performed.

Data set [4] addresses T1, EN2 (Engrailed-2). The data set can be described thus: FAM fluorescence; second strand printed 3'-5' in Table 1; EMSA, SPR and SYBR Green I displacement also showed binding of TAATTA dsDNA. As to conditions: tags: (His)6-tag, pET28a, E. coli BL21(DE3); label: FAM. In general terms: Mobility shift assays separate free from complexed probe on a gel.

Chain of TATA box binding protein (TBP) (P20226 whole entry, one chain of several): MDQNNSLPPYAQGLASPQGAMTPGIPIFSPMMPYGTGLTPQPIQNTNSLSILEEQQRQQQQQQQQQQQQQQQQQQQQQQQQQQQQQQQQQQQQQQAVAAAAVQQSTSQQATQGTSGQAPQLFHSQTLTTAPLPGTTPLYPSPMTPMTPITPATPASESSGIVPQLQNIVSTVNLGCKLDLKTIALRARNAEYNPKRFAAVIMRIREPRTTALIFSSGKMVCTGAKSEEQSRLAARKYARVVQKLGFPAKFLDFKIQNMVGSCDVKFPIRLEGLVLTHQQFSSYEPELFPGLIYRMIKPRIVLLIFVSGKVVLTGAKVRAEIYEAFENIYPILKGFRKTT

For the molecule CGTGTAATTACCTCCAGACCAGGAGAGGTAATTACACG (structured_DNA) [hpDNA4], the dissociation constant (Kd) (commonly the equilibrium constant for the complex coming apart) in data set [1] (label: FAM, loop 10 bases, stem 14 bp) was found to be 0.0888 µM.

The molecule CGTAATTACCCAGAAGGAGGTAATTACG (structured_DNA) [hpDNA5] displayed a Kd in data set [2] of 0.0688 µM. This lies in the double-digit nanomolar range. In data set [1] (label: FAM (Kd assay), poly A linker to gold surface (biosensor), loop 8 bases, stem 14 bp), CGTGTAATTACCTCCAGAAGGAGAGGTAATTACACG (structured_DNA) [hpDNA3] registered a Kd of 0.0663 µM. Further, the binding result in data set [3] is on record as “no binding”.

B1: dsDNA probe (dsDNA)
DNA 1: CGTGTAATTACCTC
DNA 2: GAGGTAATTACACG
For the molecule B1, the Kd in data set [4] stood at 0.0952 µM. That is a double-digit nanomolar value. The molecule CGTGTAATTACCTCCAGAGAGGTAATTACACG (structured_DNA) [hpDNA1] registered a Kd in data set [1] (label: FAM, loop 4 bases, stem 14 bp) of 0.0857 µM. Regarding CGTGTAATTACCTCCAGGGAGAGGTAATTACACG (structured_DNA) [hpDNA2], in data set [1] (label: FAM, loop 6 bases, stem 14 bp), the affinity, expressed as Kd, was 0.0988 µM. As to CGCAGTGTAATTACCTCGACCAGAAGGAGTCGAGGTAATTACACTGCG (structured_DNA) [hpDNA6], binding in data set [1] (label: FAM, loop 8 bases, stem 20 bp) was put at a Kd of 0.061 µM.
